Source: patent US20250163149A1, “ANTI-RAGE ANTIBODY” (Swansea University, priority 2022, published 2025)
Entries after “also recorded” stand apart in the source; their conditions may differ.

Experiments:
RAGE synthetic peptide = target: T1, RAGE synthetic peptide (Homo sapiens, UniProt Q15109); assay: Surface plasmon resonance binding kinetics (Biacore T200), synthetic peptide analyte; details: chimeric antibodies and AB11451
T1 construct: purchased Biorad; host or cells: chemical synthesis
Procedure: For on-rate and off-rate screening, Biacore™ T200 system (Cytiva, Uppsala, Sweden) was used to perform SPR analysis with 1×HBS-EP+ buffer (0.01M Hepes, 0.15M NaCl, 0.003M ethylenediaminetetraacetic acid, and 0.05% Surfactant P20, pH 7.4) (BR100669) used as sample and running buffer. The analysis temperature at the sensor chip surface and within the compartment was set to 25° C. Firstly, pH scouting with 10 mM sodium acetate buffer 4.0 (BR-1003-49), 10 mM sodium acetate buffer 4.5 (BR-1003-50), 10 mM sodium acetate buffer 5.0 (BR-1003-51) and 10 mM sodium acetate buffer 5.5 (BR-1003-52) was performed to identify the optimal pH required for ligand (α-RAGE antibodies) immobilization. This was followed by diluting the ligand with the appropriate Acetate buffer to at least 10 μg/mL. The ligand immobilization on the surface Series S Sensor Chip CM5 (29-1496-03, Cytiva) was performed using the Amine Coupling Kit (BR100050, Cytiva) containing 1-Etyhyl-3-(3-dimethylaminopropyl)-carbodiimide hydrochloride (EDC), N-Hydroxysuccinimide (NHS) and 1.0M ethanolamine-HcL PH 8.5 in accordance with the manufacturer's instructions. For each experimental run, the ligand was immobilized in flow cells 2 or 4 while flow cells 1 or 3 were left unmodified. Flow cells 2 and 4 were used as active flow cells while flow cells 1 and 3 were used as reference flow cells. […]

SKOV3 cells = assay: Internalisation assay on SKOV3 cells; type: cell-based, human; details: for uptake (internalisation), secondary antibody detection: 4 h or 24 h at 37° C.
Procedure: To screen internalization capacity and traffic to lysosomes of α-RAGE antibodies, all the primary antibodies used in the screening were conjugated to pHAb Amine Reactive Dye following manufacturer's instructions (Promega, UK, Cat. No. G983). This type of dye emits fluorescence when traffics to acidic environments (late endosome and lysosome). For this purpose, 1.5×10^4 SKOV3 cells/well were seeded in 8-well chamber slides (Ibidi) in 300 μl of stripped medium and cultured for 24 h in a humidified, 5% CO2 in air atmosphere incubator at 37° C. After culture, cells were washed in pre-warmed (37° C.) Dulbecco's phosphate buffered saline (DPBS) and slides placed on ice. Cells were treated with control medium or medium containing one of the α-RAGE antibodies conjugated to pH-dye at 10 μg/ml, and the 8-well chamber slides were incubated on ice for 30 minutes. Slides were then transferred to the incubator at 37° C. for 4 h or 24 h. After internalization time, cells were washed in DPBS, fixed in 4% paraformaldehyde for 20 min and permeabilized with 0.1% Triton X-100 (Sigma) for 10 minutes at 4° C. Cells were washed with PBS extensively between all steps, counterstained before imaging with Hoechst (Life Technologies™) and imaged using a LSM710 confocal fluorescence microscopy system (Zeiss, UK). Unconjugated α-RAGE antibodies were also used in the internalisation assay. In this case were visualized using Alexa-fluorophore secondary antibodies as described in the immunofluorescence method.

RAGE = assay: Western blot on protein extracts from ovarian cancer cell lines (OCCL); set-up: species or system human; details: whole-cell extracts of SKOV3, OVCAR3, A2780 and cisplatin-resistant lines; antibody 1 μg/mL
Procedure: Confluent cultures of cells were lysed in ice cold RIPA buffer (Sigma-Aldrich), whole-cell protein extracts were quantified with DC protein assay, 30 μg/lane were resolved by SDS-PAGE on TGX precast gels, transferred to mini PDVF membranes, blocked 1 h at RT in 5% Bovine Serum Albumin (BSA) in TBST (Tris Buffered Saline, 0.1% Tween-20) and incubated o/n at 4° C. in the same solution with 1 μg/mL of mA9 (sc-365154, Santa Cruz Biotechnology) antibody, mHA9 antibody or hHA9 antibody, or GAPDH (Santa Cruz Biotechnology) as loading control. Membranes were then washed with TBST and incubated 1 h at RT with 0.1 μg/mL of IgG horseradish peroxidase secondary antibody (GE Healthcare) or […] of Goat F(ab′) 2 Anti-Mouse IgG-F(ab′) 2 horseradish peroxidase secondary antibody (Abcam). Target proteins were visualised after incubation with Clarity Western ECL Substrate and imaged using a ChemiDoc System Bio-Rad Imager. Bands were quantified with ImageLab software. Unless stated all the materials specified above were obtained from Bio-Rad Laboratories.

RAGE, sequence (Q15109 23-317 limits assumed): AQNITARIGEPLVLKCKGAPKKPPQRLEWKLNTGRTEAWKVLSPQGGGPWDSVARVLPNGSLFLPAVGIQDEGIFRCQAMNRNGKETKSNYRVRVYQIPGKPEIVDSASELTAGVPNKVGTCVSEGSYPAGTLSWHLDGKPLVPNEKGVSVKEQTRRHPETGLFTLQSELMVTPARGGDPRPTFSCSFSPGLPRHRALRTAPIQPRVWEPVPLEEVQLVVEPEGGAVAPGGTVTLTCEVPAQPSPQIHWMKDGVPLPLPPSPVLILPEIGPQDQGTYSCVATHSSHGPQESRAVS
T1 sequence (Q15109 39-65 limits assumed): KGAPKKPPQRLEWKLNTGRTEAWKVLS

B1: hHA9: chimeric humanised format of anti-RAGE antibody clone HA9 (antibody, V domains shown)
VH: EVKLVETGGGLVQPGRPMKLSCVASGFTLSDHWMNWVRQSPEKGLEWVAQIRNRPYKFEKYYSDSVKGRFTISRDDSKNSVYLQMNNLRAEDMGIYYCSSYRYGLAYWGQGTLVTVST
VL: DNLLTQSPAILSVSPGERVSFSCRASQTIDTRIHWYQQRKNGSPRLLIRYISESLSGIPSRFSGSGSGTEFTLTINSVESEDIADYYCQQTESWPITFGSGTKLEIK
With B1 the “binding affinity to the new synthetic peptides” value (RAGE synthetic peptide) was “the affinity is weak”, the “uptake (internalisation), secondary antibody detection” value (SKOV3 cells; compared with other clones and AB11451, listed as chimeric HA9) was “highest uptake” and the “uptake (internalisation), secondary antibody detection” value (SKOV3 cells; compared with other clones and AB11451, listed as chimeric-HA9) was “better uptake”. For the same molecule, the “uptake of pH-dye conjugated antibody” value (SKOV3 cells; pHAb dye conjugate 10 μg/ml, 4 h or 24 h) was “highest uptake and traffics efficiently to acidic endosomes” and the “RAGE isoform detected by western blot” value (RAGE) was “able to detect expression levels of full-length transmembrane RAGE; also recorded: detection of high levels of full-length RAGE isoform”.
